From article PMC6304933

Target: Thermosynechococcus elongatus BP-1 Fed2 (Thermosynechococcus elongatus BP-1)
Test: SDS/PAGE

stoichiometry N: 2
Substance: Thermosynechococcus elongatus BP-1 Fed2 (natural protein)
